Where no end group is shown, it is not given here.
B1: Phage-2837 (peptide)
peptide: VDRWCTPPWMCDWQ
modifications: cysteine pairing not given here; also: fused to pIII of bacteriophage, linker and pIII sequence not given here
notes: Clonal phage of the Peptide-180 optimization library, tested as crude phage supernatant; not shown: fused to pIII of the bacteriophage
B2: Phage-2738 (Peptide-180 library clone) (peptide)
peptide: WEKLCRPAWMCAAY
modifications: cysteine pairing not given here; also: fused to pIII, displayed on bacteriophage
B3: Phage-2766 (peptide)
peptide: VEKWCTPAWMCSTS
notes: Clone of the Peptide-180 optimisation library, tested as clonal phage supernatant (peptide fused to pIII of the bacteriophage)
B4: Phage-2763 (peptide)
peptide: FEKWCTPTWMCWPY
notes: as for B3
B5: Phage-2767 (peptide)
peptide: DVTWCIPPWMCMYN
notes: as for B3
B6: Phage-2845 (peptide)
peptide: WDMLCRPAWMCEGF
modifications: cysteine pairing not given here; also: fused to pIII of bacteriophage, linker and pIII sequence not given here
notes: as for B1
B7: Phage-2844 (peptide)
peptide: VVAMCKPAWMCAGL
modifications: cysteine pairing not given here; also: fused to pIII of bacteriophage, linker and pIII sequence not given here
notes: as for B1
B8: Phage-2759 (peptide)
peptide: MQKMCIPTWMCDGL
notes: as for B3
B9: Phage-2841 (peptide)
peptide: ESIRCTPAWMCVEM
modifications: cysteine pairing not given here; also: fused to pIII of bacteriophage, linker and pIII sequence not given here
notes: as for B1
B10: Phage-2849 (peptide)
peptide: VFPICKPSWMCVGM
modifications: cysteine pairing not given here; also: fused to pIII of bacteriophage, linker and pIII sequence not given here
notes: as for B1
B11: Phage-2761 (peptide)
peptide: PWKWCTPVWMCQGV
notes: as for B3
B12: Phage-2840 (peptide)
peptide: EPQWCIPKWMCDHM
modifications: cysteine pairing not given here; also: fused to pIII of bacteriophage, linker and pIII sequence not given here
notes: as for B1
B13: Phage-2848 (peptide)
peptide: VMTVCKPAWMCTGF
modifications: cysteine pairing not given here; also: fused to pIII of bacteriophage, linker and pIII sequence not given here
notes: as for B1
B14: Phage-2770 (peptide)
peptide: QIKWCIPMWMCEGE
notes: as for B3
B15: Phage-2760 (peptide)
peptide: PVKMCTPAWMCSER
notes: as for B3
B16: Phage-2756 (peptide)
peptide: AHNWCTPAWMCMWD
modifications: cysteine pairing not given here; also: fused to pIII, displayed on bacteriophage
notes: as for B3
B17: Phage-2768 (peptide)
peptide: AENWCTPRWMCEGI
notes: as for B3
B18: Phage-2839 (peptide)
peptide: DSHWCMPVWMCMGL
modifications: cysteine pairing not given here; also: fused to pIII of bacteriophage, linker and pIII sequence not given here
notes: as for B1
B19: Phage-2764 (peptide)
peptide: ENHWCRPMWMCETI
notes: as for B3
B20: Phage-2843 (peptide)
peptide: MLPICKPDWMCAGF
modifications: cysteine pairing not given here; also: fused to pIII of bacteriophage, linker and pIII sequence not given here
notes: as for B1
B21: Phage-2762 (peptide)
peptide: WINWCTPQWMCADL
modifications: cysteine pairing not given here; also: fused to pIII, displayed on bacteriophage
notes: as for B3
B22: Phage-2758 (peptide)
peptide: MVHWCTPSWMCSAL
notes: Clone of the Peptide-180 optimisation library, tested as clonal phage supernatant (peptide fused to pIII of the bacteriophage); Row read against Peptide-180: MVHWCTPSWMCSAL
B23: Phage-2846 (peptide)
peptide: WEVRCVPEWMCVGF
modifications: cysteine pairing not given here; also: fused to pIII of bacteriophage, linker and pIII sequence not given here
notes: as for B1
B24: Phage-2838 (peptide)
peptide: HPKLCTPEWMCVIQ
modifications: cysteine pairing not given here; also: fused to pIII of bacteriophage, linker and pIII sequence not given here
notes: as for B1
B25: Phage-2835 (peptide)
peptide: VAKLCTPAWMCSAM
modifications: cysteine pairing not given here; also: fused to pIII of bacteriophage, linker and pIII sequence not given here
notes: as for B1
B26: Phage-2757 (peptide)
peptide: GEIRCSPAWMCDGF
notes: as for B3
B27: Phage-2847 (peptide)
peptide: WMPRCVPEWMCAGF
modifications: cysteine pairing not given here; also: fused to pIII of bacteriophage, linker and pIII sequence not given here
notes: as for B1
B28: Phage-2769 (peptide)
peptide: SYKWCTPDWMCVAV
notes: as for B3
B29: Phage-2765 (peptide)
peptide: HAIWCIPEWMCAFN
modifications: cysteine pairing not given here; also: fused to pIII, displayed on bacteriophage
notes: as for B3
B30: Phage-2842 (peptide)
peptide: PEVMCRPVWMCLGF
modifications: cysteine pairing not given here; also: fused to phage pIII, linker not given here
notes: as for B1
B31: Phage-2836 (peptide)
peptide: DWKLCKPTWMCESL
modifications: cysteine pairing not given here; also: fused to pIII of bacteriophage, linker and pIII sequence not given here
notes: as for B1

Legend:
006 PSMA Fab [1] = target: T1, 006 PSMA Fab; assay: clonal phage ELISA on captured PSMA Fab pre-incubated with PSMA antigen as competitor, anti-M13 HRP detection;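 further: crude clonal phage supernatants tested by ELISA, wells first treated with blocking buffer plus PSMA antigen, bound phage read out via HRP-linked anti-M13 antibody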
T1 construct: also called Anti-PSMA Fab
Procedure: (§1) Clonal phage were harvested as crude supernatants and screened via standard ELISAs. […] Prior to the addition of clonal phage. wells were incubated with blocking buffer and PSMA antigen or blocking buffer alone. Without washing or aspirating, clonal phage supernatants were then added to the wells and incubated for a short time. Wells were then washed followed by detection of bound phage using a horse radish conjugated anti-M13 antibody.

006 PSMA Fab [2] = target: T1, 006 PSMA Fab; assay: clonal phage ELISA on biotinylated PSMA Fab captured on neutravidin plates, anti-M13 HRP detection;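 further: crude clonal phage supernatants tested, before phage were added, wells were pretreated with PSMA antigen in blocking buffer or with blocking buffer only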
Procedure: as §1

[3] = target: PSMA Fab (anti-PSMA Fab; 006 PSMA Fab); assay: phage binding ELISA; clonal phage supernatant on biotinylated PSMA Fab captured on neutravidin plate; anti-M13 HRP detection
Procedure: as §1

[4] = target: PSMA Fab (anti-PSMA Fab; 006 PSMA Fab); assay: phage binding ELISA on captured PSMA Fab; wells first incubated with PSMA antigen as competitor; anti-M13 HRP detection
Procedure: as §1

006 PSMA Fab [5] = target: T2, 006 PSMA Fab (biotinylated (site not stated)); assay: clonal phage ELISA on captured PSMA Fab, wells pre-incubated with PSMA antigen as competitor
T2 construct: Biotinylated PSMA Fab captured on neutravidin coated plates in the panning ELISA; also called Anti-PSMA Fab

006 PSMA Fab [6] = target: T2, 006 PSMA Fab; assay: clonal phage ELISA on biotinylated PSMA Fab captured on neutravidin plates, anti-M13-HRP detection;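 further: crude clonal phage supernatants added to wells preincubated with PSMA antigen or with blocking buffer only (no wash between), briefly incubated, then washed before detecting bound phage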
Procedure: as §1

Row | Binder | Phage binding ELISA signal, Anti-PSMA Fab with PSMA antigen (006 PSMA Fab [1]) | Phage binding ELISA signal, Anti-PSMA Fab (006 PSMA Fab [2]) | phage binding ELISA signal in presence of PSMA antigen (006 PSMA Fab [5]) | phage binding ELISA signal (006 PSMA Fab [6]) | also measured
1 | B1 | 0.0626 | 0.429 |  |  | 
2 | FENWCTPYWMCSGM [Phage-2739 (Peptide-180 library clone)] |  |  |  |  | Phage binding ELISA signal, Anti-PSMA Fab [3]: 0.712; Phage binding ELISA signal, Anti-PSMA Fab with PSMA antigen [4]: 0.0884
3 | B2 |  |  |  |  | Phage binding ELISA signal, Anti-PSMA Fab [3]: 0.715; Phage binding ELISA signal, Anti-PSMA Fab with PSMA antigen [4]: 0.0754
4 | B3 |  |  | 0.065 | 0.657 | 
5 | B4 |  |  | 0.0829 | 0.661 | 
6 | B5 |  |  | 0.0814 | 0.655 | 
7 | B6 | 0.157 | 2.48 |  |  | 
8 | B7 | 0.0731 | 2.48 |  |  | 
9 | B8 |  |  | 0.0817 | 0.673 | 
10 | B9 | 0.0725 | 0.421 |  |  | 
11 | B10 | 0.174 | 2.46 |  |  | 
12 | B11 |  |  | 0.0937 | 0.669 | 
13 | B12 | 0.0608 | 0.423 |  |  | 
14 | B13 | 0.205 | 2.47 |  |  | 
15 | B14 |  |  | 0.0554 | 0.651 | 
16 | B15 |  |  | 0.0866 | 0.67 | 

Row | Binder | Phage binding ELISA signal, Anti-PSMA Fab with PSMA antigen (006 PSMA Fab [1]) | Phage binding ELISA signal, Anti-PSMA Fab (006 PSMA Fab [2]) | phage binding ELISA signal in presence of PSMA antigen (006 PSMA Fab [5]) | phage binding ELISA signal (006 PSMA Fab [6]) | also measured
17 | B16 |  |  | 0.0753 | 0.682 | 
18 | B17 |  |  | 0.201 | 0.655 | 
19 | B18 | 0.156 | 0.423 |  |  | 
20 | B19 |  |  | 0.0683 | 0.66 | 
21 | B20 | 0.0942 | 2.49 |  |  | 
22 | B21 |  |  | 0.13 | 0.662 | 
23 | B22 |  |  | 0.1 | 0.677 | 
24 | B23 | 0.119 | 2.48 |  |  | 
25 | B24 | 0.104 | 0.424 |  |  | 
26 | B25 | 0.0638 | 0.431 |  |  | 
27 | B26 |  |  | 0.104 | 0.682 | 
28 | B27 | 0.334 | 2.48 |  |  | 
29 | B28 |  |  | 0.0709 | 0.651 | 
30 | B29 |  |  | 0.124 | 0.658 | 
31 | B30 | 0.112 | 2.51 |  |  | 
32 | B31 | 0.0664 | 0.43 |  |  | 

From US20260242478A1 (published 2026)
